# Measurements reported in patent US20250333506A1 (NEW YORK UNIVERSITY, published 2025).
# Residue numbers refer to the chain shown, from its start. Read-outs that look alike come from different tables or passages of the source.
# T1: Cyno D2 (biotinylated (AviTag))
# T1 construct: also called cynomolgus Gamma/Delta2; Cyno D2/G
# T1 delta chain: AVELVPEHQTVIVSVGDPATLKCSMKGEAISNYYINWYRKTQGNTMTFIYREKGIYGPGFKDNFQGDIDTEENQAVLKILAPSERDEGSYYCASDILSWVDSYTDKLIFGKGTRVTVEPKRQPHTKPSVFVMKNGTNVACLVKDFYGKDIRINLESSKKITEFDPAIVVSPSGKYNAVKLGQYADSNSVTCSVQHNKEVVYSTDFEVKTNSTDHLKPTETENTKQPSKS
# T1 gamma chain: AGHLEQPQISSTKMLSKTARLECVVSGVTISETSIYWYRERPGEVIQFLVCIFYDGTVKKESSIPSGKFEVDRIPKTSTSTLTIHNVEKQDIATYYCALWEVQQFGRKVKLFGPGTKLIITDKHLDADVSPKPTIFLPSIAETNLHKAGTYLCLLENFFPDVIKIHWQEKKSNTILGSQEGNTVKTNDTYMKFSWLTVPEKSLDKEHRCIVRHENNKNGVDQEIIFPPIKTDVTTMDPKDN
# B1: Delta1-23 (antibody, V domains shown)
# VH: EVQLVESGGGLVQPGGSLRLSCAASGFTVSSSSIHWVRQAPGKGLEWVASIYSSSGYTYYADSVKGRFTISADTSKNTAYLQMNSLRAEDTAVYYCARDPGSYYWYYSGSAYEGYGLDYWGQGTLVTVSS
# VL: DIQMTQSPSSLSASVGDRVTITCRASQSVSSAVAWYQQKPGKAPKLLIYAASSLQSGVPSRFSGSRSGTDFTLTISSLQPEDFATYYCQQQSKYPFLITFGQGTKVEIKR
# notes: Tested in the human IgG format; also called anti-Delta1-23
# B2: Delta1-22 (antibody, V domains shown)
# VH: B1 VH
# VL: B1 VL with Q91R, K93R, P95Y, F96S
# notes: Tested in the human IgG format
# B3: Delta1-26 (antibody, V domains shown)
# VH: B1 VH
# VL: B1 VL with S92Q, K93R, P95S, F96Y
# notes: as for B2
# B4: Delta1-25 (antibody, V domains shown)
# VH: B1 VH
# VL: B1 VL with Q91I, S92G, K93R, Y94R, P95S, F96S
# notes: as for B2
# B5: Delta1-24 (antibody, V domains shown)
# VH: B1 VH
# VL: B1 VL with Q91S, S92N, K93R, Y94S, P95Y, F96P, L97P, I98L
# notes: as for B2
# B6: Delta1-39 (antibody, V domains shown)
# VH: B1 VH with V29F, S30T, S31A, S32N, S33D
# VL: B1 VL
# notes: Tested in the human IgG format; also called anti-Delta1-39; Delta-39
# B7: Delta1-21 (antibody, V domains shown)
# VH: B1 VH
# VL: B1 VL with S92Q, K93R, Y94T, P95S, F96Y
# notes: as for B2
# B8: Delta1-20 (antibody, V domains shown)
# VH: B1 VH
# VL: B1 VL with Q91Y, S92C, K93R, Y94K, P95S, F96S, I98F
# notes: as for B2
# B9: Delta1-18 (antibody, V domains shown)
# VH: B1 VH
# VL: B1 VL with Q91R, K93R, Y94V, P95Y, F96S, I98V
# notes: as for B2
# Columns and labels:
# Human D1A/G3 = biological target: T2, Human D1A/G3 (biotinylated (AviTag)); assay: bead binding assay: biotinylated TCR-Fc on streptavidin beads, IgG titrated, flow cytometry
# T2 construct: also called human Delta1A / Gamma3 TCR-Fc fusion protein
# T2 sequence (delta chain, as listed by the source, chain 1 of 2): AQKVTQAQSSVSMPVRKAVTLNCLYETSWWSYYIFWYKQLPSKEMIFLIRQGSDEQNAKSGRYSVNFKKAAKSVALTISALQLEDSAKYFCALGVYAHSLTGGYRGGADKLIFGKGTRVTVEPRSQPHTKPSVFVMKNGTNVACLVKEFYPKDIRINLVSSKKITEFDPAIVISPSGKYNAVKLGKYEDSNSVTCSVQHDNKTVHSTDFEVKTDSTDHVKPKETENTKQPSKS
# T2 sequence (gamma chain, as listed by the source, chain 2 of 2): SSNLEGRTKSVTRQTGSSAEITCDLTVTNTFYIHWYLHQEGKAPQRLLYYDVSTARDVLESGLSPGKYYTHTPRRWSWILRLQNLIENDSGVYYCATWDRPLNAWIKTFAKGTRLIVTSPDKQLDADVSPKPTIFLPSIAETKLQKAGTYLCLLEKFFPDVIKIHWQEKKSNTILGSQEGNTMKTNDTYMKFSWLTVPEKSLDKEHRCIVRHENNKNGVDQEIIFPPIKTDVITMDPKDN
# [1] = biological target: T3, cynomolgus Gamma/Delta1A TCR-Fc fusion protein (cynomolgus monkey, biotinylated in vitro with recombinant BirA (AviTag)); assay: as above
# T3 construct: First chain = delta, second = gamma; also called Cyno D1; cyno D1; not shown: Fc portion of mouse IgG, then AviTag and His6 tag at the C-terminus; Fc portion of mouse IgG
# [2] = biological target: T3, cynomolgus Gamma/Delta1A TCR-Fc fusion …; assay: bead binding assay (TCR-Fc on streptavidin beads, IgG titrated, flow cytometry); apparent KD, s.d. of triplicates
# Cyno D2 [3] = biological target: T1, Cyno D2; assay: bead binding assay: biotinylated TCR-Fc on streptavidin beads, IgG titrated, flow cytometry
# Human D1A/G8 = biological target: T4, Human D1A/G8 (biotinylated (AviTag)); assay: as above
# T4 construct: may be the same protein as m34; also called human Delta1A / Gamma8 TCR-Fc fusion protein
# T4 sequence (delta chain, as listed by the source, chain 1 of 2): as the sequence (delta chain, as listed by the source, chain 1 of 2) above
# T4 sequence (gamma chain, as listed by the source, chain 2 of 2): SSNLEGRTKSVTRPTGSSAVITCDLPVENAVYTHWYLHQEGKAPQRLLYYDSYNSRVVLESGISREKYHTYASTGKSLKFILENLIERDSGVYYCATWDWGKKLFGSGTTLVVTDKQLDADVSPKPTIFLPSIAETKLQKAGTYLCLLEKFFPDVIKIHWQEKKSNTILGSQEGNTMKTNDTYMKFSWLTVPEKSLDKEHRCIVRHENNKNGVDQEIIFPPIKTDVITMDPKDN
# Cyno D2 [4] = biological target: T1, Cyno D2; assay: as above
# Cyno D2 [5] = biological target: T1, Cyno D2; assay: as above
# Cyno D2 [6] = biological target: T1, Cyno D2; assay: as above
# Cyno D2 [7] = biological target: T1, Cyno D2; assay: as above
# [8] = biological target: T3, cynomolgus Gamma/Delta1A TCR-Fc fusion …; assay: bead binding assay (TCR-Fc on streptavidin beads, IgG titrated, flow cytometry); apparent KD
# [9] = biological target: T5, human Delta1 TCR (Fc fusion protein, Delta1 clone and gamma chain not stated); assay: bead binding titration, flow cytometry (MFI against antibody concentration)
# T5 construct: also called Human Delta1 Fc fusion protein; human delta-1 chain
# [10] = biological target: T6, cynomolgus monkey Delta1 Fc fusion protein (Delta1 clone not stated); assay: bio-layer interferometry (Octet), biotinylated receptor on streptavidin sensor tips, antibody in solution; KD Error 1.33e-012
# T6 construct: also called monkey (cyno) delta-1 chain; monkey Delta1 receptors
# [11] = biological target: T3, cynomolgus Gamma/Delta1A TCR-Fc fusion …; assay: bead binding assay by the table's title (paragraph 456 gives the same value for Octet BLI, FIG. 22B); apparent KD; apparent KD, IgG format, bead binding assay; measured once
# [12] = biological target: T7, cell surface-expressed δ1-γ8 TCR on J.RT3-T3.5 Jurkat cells; assay: flow cytometry titration on the D1/G8 TCR Cell Line (9-2 Hi), transduced J.RT3-T3.5 Jurkat cells
# T7 construct: whole, on cells; also called Delta1 and gamma 8
# [13] = biological target: T5, human Delta1 TCR (Fc fusion protein, …); assay: bio-layer interferometry (Octet), biotinylated receptor on streptavidin sensor tips, antibody in solution; KD Error 1.14e-012
# [14] = biological target: T8, cell surface-expressed δ1-γ4 TCR on J.RT3-T3.5 Jurkat cells; assay: flow cytometry titration on the D1/G4 TCR Cell Line (DP10 Hi), transduced J.RT3-T3.5 Jurkat cells
# T8 construct: whole, on cells; also called Delta1 and gamma 4; delta1/gamma-4
# [15] = biological target: T9, cell surface-expressed δ1γ3 TCR on J.RT3-T3.5 Jurkat cells; assay: flow cytometry titration on the D1/G3 TCR Cell Line (16-3 Hi), transduced J.RT3-T3.5 Jurkat cells
# T9 construct: whole, on cells; also called Delta1 and gamma 3
# [16] = biological target: T3, cynomolgus Gamma/Delta1A TCR-Fc fusion …; assay: bead binding assay: biotinylated TCR-Fc on streptavidin beads, IgG titrated, flow cytometry; remark: listed apart in the source
# [17] = biological target: T10, cell surface-expressed δ1-γ9 TCR on J.RT3-T3.5 Jurkat cells; assay: flow cytometry titration on the D1/G9 TCR Cell Line (JR2 Hi), transduced J.RT3-T3.5 Jurkat cells
# T10 construct: whole, on cells; also called Delta1/Gamma9 TCR on the surface; delta1/gamma-9
# [18] = biological target: T11, cell surface-expressed δ1γ2 TCR on J.RT3-T3.5 Jurkat cells; assay: flow cytometry titration on the D1/G2 TCR Cell Line (9-10 Hi), transduced J.RT3-T3.5 Jurkat cells
# T11 construct: whole, on cells; Cells were stained with anti-human reagents; species of the transduced chains is not restated; also called Delta1 and gamma 2
# [19] = biological target: T12, cell surface-expressed δ1-γ5 TCR on J.RT3-T3.5 Jurkat cells; assay: flow cytometry titration on the D1/G5 TCR Cell Line (AB Hi), transduced J.RT3-T3.5 Jurkat cells
# T12 construct: whole, on cells; also called Delta1 and gamma 5
# Cyno D2 [20] = biological target: T1, Cyno D2; assay: bead binding assay: biotinylated TCR-Fc on streptavidin beads, IgG titrated, flow cytometry
# Cyno D2 [21] = biological target: T1, Cyno D2; assay: as above
# Cyno D2 [22] = biological target: T1, Cyno D2; assay: as above
binder,measurement,setting,value
B1,binding result,Human D1A/G3,binds
same,EC50 (read off the curve),[1],~5 nM
same,Kd,[2],1.3 nM
same,binding result,Cyno D2 [3],no binding (tested: 100 nM)
same,binding result,Human D1A/G8,binds
B2,binding result,Cyno D2 [4],no binding (tested: 100 nM)
same,Kd,[2],0.61 nM
B3,binding result,Cyno D2 [5],no binding (tested: 100 nM)
same,Kd,[2],0.26 nM
B4,Kd,[2],0.48 nM
same,binding result,Cyno D2 [6],no binding (tested: 100 nM)
B5,binding result,Cyno D2 [7],no binding (tested: 100 nM)
same,Kd,[8],1.16 nM
B6,EC50 (read off the curve),[9],~1 nM
same,Kd,[10],0.285 nM
same,Kd,[11],0.28 nM
same,EC50 (read off the curve),[12],~6 nM
same,Kd,[13],0.231 nM
same,EC50 (read off the curve),[14],~9 nM
same,EC50 (read off the curve),[15],~6 nM
same,EC50 (read off the curve),[16],~2 nM
same,EC50 (read off the curve),[17],~10 nM
same,EC50 (read off the curve),[18],~7 nM
same,EC50 (read off the curve),[19],~4 nM
B7,Kd,[2],1.74 nM
same,binding result,Cyno D2 [20],no binding (tested: 100 nM)
B8,Kd,[8],0.34 nM
same,binding result,Cyno D2 [21],no binding (tested: 100 nM)
B9,Kd,[8],0.15 nM
same,binding result,Cyno D2 [22],no binding (tested: 100 nM)
